Target: T1, CsARF5-HIS (Cucumis sativus, UniProt A0A0A0LE69 1-948)
T1 sequence: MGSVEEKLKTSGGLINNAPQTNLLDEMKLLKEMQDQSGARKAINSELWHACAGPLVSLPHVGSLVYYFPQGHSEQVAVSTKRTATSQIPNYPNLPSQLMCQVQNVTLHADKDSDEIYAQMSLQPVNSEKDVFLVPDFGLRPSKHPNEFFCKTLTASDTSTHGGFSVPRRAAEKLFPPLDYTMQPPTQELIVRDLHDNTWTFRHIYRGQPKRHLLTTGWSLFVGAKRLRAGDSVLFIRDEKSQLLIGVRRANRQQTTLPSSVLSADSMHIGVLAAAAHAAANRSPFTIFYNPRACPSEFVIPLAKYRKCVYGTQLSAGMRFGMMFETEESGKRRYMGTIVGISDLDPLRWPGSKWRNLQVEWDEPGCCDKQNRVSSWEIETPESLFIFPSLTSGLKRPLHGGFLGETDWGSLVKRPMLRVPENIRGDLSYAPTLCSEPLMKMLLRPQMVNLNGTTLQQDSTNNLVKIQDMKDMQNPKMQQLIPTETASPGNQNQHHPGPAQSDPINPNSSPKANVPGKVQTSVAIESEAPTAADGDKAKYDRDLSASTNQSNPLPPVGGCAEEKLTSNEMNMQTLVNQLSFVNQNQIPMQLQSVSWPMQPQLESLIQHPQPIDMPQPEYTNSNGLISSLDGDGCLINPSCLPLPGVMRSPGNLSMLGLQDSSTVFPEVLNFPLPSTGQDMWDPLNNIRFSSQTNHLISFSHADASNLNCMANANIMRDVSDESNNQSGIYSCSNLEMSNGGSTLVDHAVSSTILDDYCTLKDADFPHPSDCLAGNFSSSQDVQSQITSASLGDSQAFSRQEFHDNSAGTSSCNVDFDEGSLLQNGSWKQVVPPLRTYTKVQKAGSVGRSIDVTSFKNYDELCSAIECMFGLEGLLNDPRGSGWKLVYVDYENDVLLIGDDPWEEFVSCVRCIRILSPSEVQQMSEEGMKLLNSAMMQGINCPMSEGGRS
Assay: EMSA; EMSA: protein and probe incubated at 24 °C for 30 min, nondenaturing acrylamide gel; buffer, salt and pH not stated
Conditions: protein: recombinant; tags: His; label: biotin

B1: CsDREB3 promoter probe (dsDNA)
DNA 1: ATCGGGGTAAGAGACATTAAGAAACA
DNA 2: TGTTTCTTAATGTCTCTTACCCCGAT
B1: binds.
